Assay results reported in patent US20240018502A1.

What was measured:
Assay in all cases: cell-based or functional assay
[1] = biological target: proteinase-activated receptor 2 (PAR-2) (UniProt P55085)
[2] = biological target: complement protein C3 of cynomolgus monkey plasma (cynomolgus monkey)
[3] = biological target: human complement protein C3 (human) (UniProt P01024)
Sequence of human complement protein C3 (human) (P01024 23-667, chain 1 of 2): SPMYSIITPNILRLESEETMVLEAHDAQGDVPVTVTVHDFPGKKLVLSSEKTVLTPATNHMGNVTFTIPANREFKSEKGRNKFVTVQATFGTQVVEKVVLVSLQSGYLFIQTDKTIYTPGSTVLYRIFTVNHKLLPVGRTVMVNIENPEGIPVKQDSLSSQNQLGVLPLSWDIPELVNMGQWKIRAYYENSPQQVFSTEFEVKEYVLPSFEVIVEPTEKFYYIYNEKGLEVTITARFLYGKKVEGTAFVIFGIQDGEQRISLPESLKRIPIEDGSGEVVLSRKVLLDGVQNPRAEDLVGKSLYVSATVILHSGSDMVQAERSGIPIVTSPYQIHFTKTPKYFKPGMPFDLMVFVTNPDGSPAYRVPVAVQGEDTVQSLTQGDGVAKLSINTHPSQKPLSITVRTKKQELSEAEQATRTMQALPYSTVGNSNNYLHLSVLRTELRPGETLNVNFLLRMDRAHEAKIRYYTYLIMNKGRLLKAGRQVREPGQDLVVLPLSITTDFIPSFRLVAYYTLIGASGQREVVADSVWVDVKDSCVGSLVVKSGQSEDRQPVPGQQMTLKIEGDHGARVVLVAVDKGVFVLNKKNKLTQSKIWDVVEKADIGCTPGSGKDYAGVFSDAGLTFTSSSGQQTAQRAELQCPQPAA
Sequence of human complement protein C3 (human) (P01024 672-1663, chain 2 of 2): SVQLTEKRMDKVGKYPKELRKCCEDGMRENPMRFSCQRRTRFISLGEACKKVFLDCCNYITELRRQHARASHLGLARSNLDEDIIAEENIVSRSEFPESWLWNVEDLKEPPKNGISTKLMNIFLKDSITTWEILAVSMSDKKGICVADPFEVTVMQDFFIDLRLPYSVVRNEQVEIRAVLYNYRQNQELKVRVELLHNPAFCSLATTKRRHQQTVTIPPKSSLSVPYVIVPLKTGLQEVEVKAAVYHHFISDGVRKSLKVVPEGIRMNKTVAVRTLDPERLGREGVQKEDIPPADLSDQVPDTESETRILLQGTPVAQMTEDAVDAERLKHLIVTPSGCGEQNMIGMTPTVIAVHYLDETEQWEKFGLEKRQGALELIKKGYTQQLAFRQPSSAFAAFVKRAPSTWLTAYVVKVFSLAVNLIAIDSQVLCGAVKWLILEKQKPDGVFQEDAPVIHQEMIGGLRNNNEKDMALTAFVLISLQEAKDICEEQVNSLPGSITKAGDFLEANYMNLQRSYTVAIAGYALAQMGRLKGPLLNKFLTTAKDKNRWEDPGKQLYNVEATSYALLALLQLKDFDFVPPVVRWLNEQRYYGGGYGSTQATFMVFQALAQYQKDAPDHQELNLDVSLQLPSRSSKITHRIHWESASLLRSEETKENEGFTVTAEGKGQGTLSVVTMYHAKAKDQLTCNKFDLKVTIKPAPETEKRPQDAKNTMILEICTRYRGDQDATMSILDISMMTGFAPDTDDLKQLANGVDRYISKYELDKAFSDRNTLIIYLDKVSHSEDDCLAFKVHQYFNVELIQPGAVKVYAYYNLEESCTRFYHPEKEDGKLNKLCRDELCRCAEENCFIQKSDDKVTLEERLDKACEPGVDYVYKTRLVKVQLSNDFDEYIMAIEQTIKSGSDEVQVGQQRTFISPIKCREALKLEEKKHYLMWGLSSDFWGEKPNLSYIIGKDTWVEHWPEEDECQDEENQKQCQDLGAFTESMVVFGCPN

Sequence of proteinase-activated receptor 2 (PAR-2) (P55085 37-397 limits assumed): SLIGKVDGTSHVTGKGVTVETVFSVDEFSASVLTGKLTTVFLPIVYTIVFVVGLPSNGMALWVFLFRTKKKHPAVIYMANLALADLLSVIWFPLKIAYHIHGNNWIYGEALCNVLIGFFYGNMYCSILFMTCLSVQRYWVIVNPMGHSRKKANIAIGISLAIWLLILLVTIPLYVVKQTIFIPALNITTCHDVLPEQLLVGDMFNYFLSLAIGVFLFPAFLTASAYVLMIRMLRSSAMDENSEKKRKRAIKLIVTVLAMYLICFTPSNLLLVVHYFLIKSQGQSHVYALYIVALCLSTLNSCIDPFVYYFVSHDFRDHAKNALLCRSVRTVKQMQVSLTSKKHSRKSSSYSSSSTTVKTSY

Binder	PAR-2 Cell Based Assay ED50 [1]	PAR-2 cell based assay ED50 and SKGR/SL kcat/Km, against wild-type MTSP-1 protease domain with C122S [1]	also measured
Wild-type MTSP-1 protease domain with C122S (enzyme) VVGGTDADEGEWPWQVSLHALGQGHICGASLISPNWLVSAAHCYIDDRGFRYSDPTQWTAFLGLHDQSQRSAPGVQERRLKRIISHPFFNDFTFDYDIALLELEKPAEYSSMVRPISLPDASHVFPAGKAIWVTGWGHTQYGGTGALILQKGEIRVINQTTCENLLPQQITPRMMCVGFLSGGVDSCQGDSGGPLSSVEADGRIFQAGVVSWGDGCAQRNKPGVYTRLPLFRDWIKENTGV	1.4 nM		
Q38H/I41A/D60bV/F60eR/Y60gW/F97T/ins97aE/T98G/F99L/C122S/G151N/Q175L/Q192D (enzyme) VVGGTDADEGEWPWQVSLHALGHGHACGASLISPNWLVSAAHCYIDVRGRRWSDPTQWTAFLGLHDQSQRSAPGVQERRLKRIISHPFFNDTEGLDYDIALLELEKPAEYSSMVRPISLPDASHVFPAGKAIWVTGWGHTQYGGTNALILQKGEIRVINQTTCENLLPQLITPRMMCVGFLSGGVDSCDGDSGGPLSSVEADGRIFQAGVVSWGDGCAQRNKPGVYTRLPLFRDWIKENTGV	690 nM		C3 destruction ED50 (mg/kg), in vivo, intravenous injection, cynomolgus monkey [2]: 0.2 mg/kg
Modified MTSP-1 protease domain Q38H/I41S/D60bT/F60eS/Y60gW/D96V/F97G/ins97aV/T98P/F99L/C122S/G151H/Q175L/Q192D (enzyme) VVGGTDADEGEWPWQVSLHALGHGHSCGASLISPNWLVSAAHCYIDTRGSRWSDPTQWTAFLGLHDQSQRSAPGVQERRLKRIISHPFFNVGVPLDYDIALLELEKPAEYSSMVRPISLPDASHVFPAGKAIWVTGWGHTQYGGTHALILQKGEIRVINQTTCENLLPQLITPRMMCVGFLSGGVDSCDGDSGGPLSSVEADGRIFQAGVVSWGDGCAQRNKPGVYTRLPLFRDWIKENTGV		> 30 fold	
Q38H/I41S/D60bT/F60eS/Y60gW/F97D/ins97aV/T98P/F99L/C122S/G151H/Q175L/Q192D (enzyme) VVGGTDADEGEWPWQVSLHALGHGHSCGASLISPNWLVSAAHCYIDTRGSRWSDPTQWTAFLGLHDQSQRSAPGVQERRLKRIISHPFFNDDVPLDYDIALLELEKPAEYSSMVRPISLPDASHVFPAGKAIWVTGWGHTQYGGTHALILQKGEIRVINQTTCENLLPQLITPRMMCVGFLSGGVDSCDGDSGGPLSSVEADGRIFQAGVVSWGDGCAQRNKPGVYTRLPLFRDWIKENTGV	640 nM		
I41R/F97T/Ins97aE/T98G/F99L/C122S/G151N/Q175L/Q192E (enzyme) VVGGTDADEGEWPWQVSLHALGQGHRCGASLISPNWLVSAAHCYIDDRGFRYSDPTQWTAFLGLHDQSQRSAPGVQERRLKRIISHPFFNDTEGLDYDIALLELEKPAEYSSMVRPISLPDASHVFPAGKAIWVTGWGHTQYGGTNALILQKGEIRVINQTTCENLLPQLITPRMMCVGFLSGGVDSCEGDSGGPLSSVEADGRIFQAGVVSWGDGCAQRNKPGVYTRLPLFRDWIKENTGV	2600 nM		
Modified MTSP-1 protease domain Q38H/I41A/D60bT/F60eK/Y60gW/F97T/ins97aE/T98G/F99L/C122S/G151N/Q175L/Q192D (enzyme) VVGGTDADEGEWPWQVSLHALGHGHACGASLISPNWLVSAAHCYIDTRGKRWSDPTQWTAFLGLHDQSQRSAPGVQERRLKRIISHPFFNDTEGLDYDIALLELEKPAEYSSMVRPISLPDASHVFPAGKAIWVTGWGHTQYGGTNALILQKGEIRVINQTTCENLLPQLITPRMMCVGFLSGGVDSCDGDSGGPLSSVEADGRIFQAGVVSWGDGCAQRNKPGVYTRLPLFRDWIKENTGV		> 30 fold	
Q38H/I41A/D60bT/F60eK/Y60gW/F97T/ins97aE/T98G/F99L/C122S/G151H/Q175L/Q192D (enzyme) VVGGTDADEGEWPWQVSLHALGHGHACGASLISPNWLVSAAHCYIDTRGKRWSDPTQWTAFLGLHDQSQRSAPGVQERRLKRIISHPFFNDTEGLDYDIALLELEKPAEYSSMVRPISLPDASHVFPAGKAIWVTGWGHTQYGGTHALILQKGEIRVINQTTCENLLPQLITPRMMCVGFLSGGVDSCDGDSGGPLSSVEADGRIFQAGVVSWGDGCAQRNKPGVYTRLPLFRDWIKENTGV	560 nM		
Modified MTSP-1 protease domain Q38H/I41S/D60bT/F60eS/Y60gW/D96K/F97D/ins97aA/T98P/F99L/C122S/G151N/Q175L/Q192D (enzyme) VVGGTDADEGEWPWQVSLHALGHGHSCGASLISPNWLVSAAHCYIDTRGSRWSDPTQWTAFLGLHDQSQRSAPGVQERRLKRIISHPFFNKDAPLDYDIALLELEKPAEYSSMVRPISLPDASHVFPAGKAIWVTGWGHTQYGGTNALILQKGEIRVINQTTCENLLPQLITPRMMCVGFLSGGVDSCDGDSGGPLSSVEADGRIFQAGVVSWGDGCAQRNKPGVYTRLPLFRDWIKENTGV		> 30 fold	
Q38H/I41S/D60bT/F60eS/Y60gW/D96K/F97G/ins97aV/T98P/F99L/C122S/G151H/Q175L/Q192D (enzyme) VVGGTDADEGEWPWQVSLHALGHGHSCGASLISPNWLVSAAHCYIDTRGSRWSDPTQWTAFLGLHDQSQRSAPGVQERRLKRIISHPFFNKGVPLDYDIALLELEKPAEYSSMVRPISLPDASHVFPAGKAIWVTGWGHTQYGGTHALILQKGEIRVINQTTCENLLPQLITPRMMCVGFLSGGVDSCDGDSGGPLSSVEADGRIFQAGVVSWGDGCAQRNKPGVYTRLPLFRDWIKENTGV			C3 destruction ED50 (mg/kg), in vivo, intravenous injection, cynomolgus monkey [2]: 0.07 mg/kg; % Inhibition of CH50, human citrated plasma, 3.2 nM test article [3]: -5%; % Inhibition of CH50, human citrated plasma, 16 nM test article [3]: 1%; % Inhibition of CH50, human citrated plasma, 80 nM test article [3]: 40%; % Inhibition of CH50, human citrated plasma, 400 nM test article [3]: 84%; % Inhibition of CH50, human citrated plasma, 2000 nM test article [3]: 92%; EC50 (nM), cleavage of purified hC3 in vitro [3]: 6.86 nM
Q38H/I41A/D60bV/F60eR/Y60gW/D96I/F97Y/ins97aN/T98G/F99L/C122S/G151N/Q175L/Q192D (enzyme) VVGGTDADEGEWPWQVSLHALGHGHACGASLISPNWLVSAAHCYIDVRGRRWSDPTQWTAFLGLHDQSQRSAPGVQERRLKRIISHPFFNIYNGLDYDIALLELEKPAEYSSMVRPISLPDASHVFPAGKAIWVTGWGHTQYGGTNALILQKGEIRVINQTTCENLLPQLITPRMMCVGFLSGGVDSCDGDSGGPLSSVEADGRIFQAGVVSWGDGCAQRNKPGVYTRLPLFRDWIKENTGV	450 nM		C3 destruction ED50 (mg/kg), in vivo, intravenous injection, cynomolgus monkey [2]: 0.06 mg/kg
Q38H/I41S/D60bT/F60eS/Y60gW/F97D/ins97aV/T98P/F99L/C122S/G151H/Q175L/Q192E (enzyme) VVGGTDADEGEWPWQVSLHALGHGHSCGASLISPNWLVSAAHCYIDTRGSRWSDPTQWTAFLGLHDQSQRSAPGVQERRLKRIISHPFFNDDVPLDYDIALLELEKPAEYSSMVRPISLPDASHVFPAGKAIWVTGWGHTQYGGTHALILQKGEIRVINQTTCENLLPQLITPRMMCVGFLSGGVDSCEGDSGGPLSSVEADGRIFQAGVVSWGDGCAQRNKPGVYTRLPLFRDWIKENTGV	1800 nM		C3 destruction ED50 (mg/kg), in vivo, intravenous injection, cynomolgus monkey [2]: 0.1 mg/kg
Modified MTSP-1 protease domain Q38H/I41S/D60bT/F60eS/Y60gW/D96K/F97G/ins97aV/T98P/F99L/C122S/G151H/Q175L/Q192D (enzyme) VVGGTDADEGEWPWQVSLHALGHGHSCGASLISPNWLVSAAHCYIDTRGSRWSDPTQWTAFLGLHDQSQRSAPGVQERRLKRIISHPFFNKGVPLDYDIALLELEKPAEYSSMVRPISLPDASHVFPAGKAIWVTGWGHTQYGGTHALILQKGEIRVINQTTCENLLPQLITPRMMCVGFLSGGVDSCDGDSGGPLSSVEADGRIFQAGVVSWGDGCAQRNKPGVYTRLPLFRDWIKENTGV		> 30 fold	inhibition of classical pathway hemolytic assay (CH50) in human plasma at the highest dose (2000 nM) [3]: 94%
Modified MTSP-1 protease domain I41R/F97T/Ins97aE/T98G/F99L/C122S/G151N/Q175L/Q192E (enzyme) VVGGTDADEGEWPWQVSLHALGQGHRCGASLISPNWLVSAAHCYIDDRGFRYSDPTQWTAFLGLHDQSQRSAPGVQERRLKRIISHPFFNDTEGLDYDIALLELEKPAEYSSMVRPISLPDASHVFPAGKAIWVTGWGHTQYGGTNALILQKGEIRVINQTTCENLLPQLITPRMMCVGFLSGGVDSCEGDSGGPLSSVEADGRIFQAGVVSWGDGCAQRNKPGVYTRLPLFRDWIKENTGV		> 30 fold	

Further lines, with some results ahead:

PAR-2 Cell Based Assay ED50 [1]	PAR-2 cell based assay ED50 and SKGR/SL kcat/Km, against wild-type MTSP-1 protease domain with C122S [1]	Binder	also measured
	> 30 fold	Modified MTSP-1 protease domain Q38H/I41S/D60bT/F60eS/Y60gW/D96L/F97D/ins97aG/T98N/F99L/C122S/G151H/Q175L/Q192E (enzyme) VVGGTDADEGEWPWQVSLHALGHGHSCGASLISPNWLVSAAHCYIDTRGSRWSDPTQWTAFLGLHDQSQRSAPGVQERRLKRIISHPFFNLDGNLDYDIALLELEKPAEYSSMVRPISLPDASHVFPAGKAIWVTGWGHTQYGGTHALILQKGEIRVINQTTCENLLPQLITPRMMCVGFLSGGVDSCEGDSGGPLSSVEADGRIFQAGVVSWGDGCAQRNKPGVYTRLPLFRDWIKENTGV	
420 nM		Q38H/I41S/D60bT/F60eS/Y60gW/D96K/F97D/ins97aA/T98P/F99L/C122S/G151H/Q175L/Q192D (enzyme) VVGGTDADEGEWPWQVSLHALGHGHSCGASLISPNWLVSAAHCYIDTRGSRWSDPTQWTAFLGLHDQSQRSAPGVQERRLKRIISHPFFNKDAPLDYDIALLELEKPAEYSSMVRPISLPDASHVFPAGKAIWVTGWGHTQYGGTHALILQKGEIRVINQTTCENLLPQLITPRMMCVGFLSGGVDSCDGDSGGPLSSVEADGRIFQAGVVSWGDGCAQRNKPGVYTRLPLFRDWIKENTGV	
	> 30 fold	Modified MTSP-1 protease domain Q38H/I41A/D60bV/F60eR/Y60gW/F97T/ins97aE/T98G/F99L/C122S/G151N/Q175L/Q192D (enzyme) VVGGTDADEGEWPWQVSLHALGHGHACGASLISPNWLVSAAHCYIDVRGRRWSDPTQWTAFLGLHDQSQRSAPGVQERRLKRIISHPFFNDTEGLDYDIALLELEKPAEYSSMVRPISLPDASHVFPAGKAIWVTGWGHTQYGGTNALILQKGEIRVINQTTCENLLPQLITPRMMCVGFLSGGVDSCDGDSGGPLSSVEADGRIFQAGVVSWGDGCAQRNKPGVYTRLPLFRDWIKENTGV	
430 nM		Q38H/I41A/D60bV/F60eR/Y60gW/F97T/ins97aE/T98G/F99L/C122S/G151H/Q175L/Q192D (enzyme) VVGGTDADEGEWPWQVSLHALGHGHACGASLISPNWLVSAAHCYIDVRGRRWSDPTQWTAFLGLHDQSQRSAPGVQERRLKRIISHPFFNDTEGLDYDIALLELEKPAEYSSMVRPISLPDASHVFPAGKAIWVTGWGHTQYGGTHALILQKGEIRVINQTTCENLLPQLITPRMMCVGFLSGGVDSCDGDSGGPLSSVEADGRIFQAGVVSWGDGCAQRNKPGVYTRLPLFRDWIKENTGV	
1900 nM		Q38H/I41A/D60bT/F60eK/Y60gW/F97T/ins97aE/T98G/F99L/C122S/G151N/Q175L/Q192D (enzyme) VVGGTDADEGEWPWQVSLHALGHGHACGASLISPNWLVSAAHCYIDTRGKRWSDPTQWTAFLGLHDQSQRSAPGVQERRLKRIISHPFFNDTEGLDYDIALLELEKPAEYSSMVRPISLPDASHVFPAGKAIWVTGWGHTQYGGTNALILQKGEIRVINQTTCENLLPQLITPRMMCVGFLSGGVDSCDGDSGGPLSSVEADGRIFQAGVVSWGDGCAQRNKPGVYTRLPLFRDWIKENTGV	C3 destruction ED50 (mg/kg), in vivo, intravenous injection, cynomolgus monkey [2]: 0.2 mg/kg
150 nM		Q38H/I41A/D60bV/F60eR/Y60gW/D96I/F97N/T98G/F99L/C122S/G151N/Q175L/Q192D (enzyme) VVGGTDADEGEWPWQVSLHALGHGHACGASLISPNWLVSAAHCYIDVRGRRWSDPTQWTAFLGLHDQSQRSAPGVQERRLKRIISHPFFNINGLDYDIALLELEKPAEYSSMVRPISLPDASHVFPAGKAIWVTGWGHTQYGGTNALILQKGEIRVINQTTCENLLPQLITPRMMCVGFLSGGVDSCDGDSGGPLSSVEADGRIFQAGVVSWGDGCAQRNKPGVYTRLPLFRDWIKENTGV	EC50 (nM), cleavage of purified hC3 in vitro [3]: 2.87 nM
